Where no end group is shown, it is not given here.
Key:
FGF-2 = FGF-2 (Homo sapiens, UniProt P09038); assay: Plasmon resonance binding of FGF-2 to FN domains
From the text: (§1) VEGF, TGF-β1, PDGF-BB and FGF-2 bound IIICS with similar affinities (KD˜10^−7 M). […] The tested biological activities of GFs bound to a FN functional domain were retained or enhanced. […] In addition, our studies provide important information regarding the delivery of GFs and the sequestering of GFs, as appropriate, for therapeutic (e.g., surgical) or aesthetic indications, including wound healing treatments (where an aim is GF delivery) and cancer treatments (where an aim is GF sequestration). Where FN fragments are used to deliver GFs, they may be described as maintaining, activating, stabilizing or enhancing GF activity.

VEGF = assay: Plasmon resonance binding of VEGF to FN domains
From the text: as §1

PDGF-BB [1] = molecular target: T1, PDGF-BB (Homo sapiens, UniProt P01127); assay: Equilibrium binding of PDGF-BB to FN, FN domains and peptides
From the text: (§2) This led us to speculate that PDGF was binding to the engineered ECM through the H or HV domain since vascular endothelial GF (VEGF), a member of the PDGF superfamily, had been reported to bind H and remain active while bound.
(§3) The survival of FN-null fibroblasts in the presence to PDGF-BB required substrate coated with intact FN or FNIII8-11+a PDGF-binding FN domain. […] To address this directly, we performed equilibrium binding assays with PDGF-BB to FN adsorbed to a surface or coupled to agarose beads. In addition, we also investigated the ability of other growth factors to bind intact FN.

TGF-β1 [2] = molecular target: T2, TGF-β1 (Homo sapiens, UniProt P01137); assay: Plasmon surface resonance kinetic binding of TGF-β1 to FN domains; details: plasmon resonance
From the text: as §1
(§4) To determine whether FN domains bind TGF-β1 and bFGF, equilibrium and kinetic binding was performed.

PDGF-BB [3] = molecular target: T1, PDGF-BB; assay: Surface plasmon resonance kinetic binding of PDGF-BB to FN domains
From the text: as §1, with “activity. […]” for “activity.”

GFs = assay: Growth factor binding to FN domains (GFs in general)
From the text: as §2

[4] = tested on: mouse fibroblasts null for FN (FN−/−); assay: Survival of FN-null fibroblasts on FN domains with PDGF-BB; assay type: cell-based; details: for FN-null cell survival / proliferation with PDGF-BB: FNIII8-11 + the named domain, or named protein; for FN-null cell survival with PDGF: plastic precoated with 0.15 μM GST-tagged FNIII8-11 ± the named domain, or named protein, PDGF-BB added 1 day after plating, 3 days
From the text: To further investigate the response of cells to PDGF-BB bound to FN domains, we investigated the survival response of mouse fibroblasts null for FN (FN−/−). First we determined the response of FN-null cells to PDGF-BB in the absence of serum or other sources of exogenous FN. […] […] […] Importantly, differential response of FN-null cells, plated on different FN domains, to PDGF-BB was not secondary to differences in attachment as judged by cell counts two hours after plating. The FNIII8-11 central cell binding domain was present in all circumstances.

fibroblast chemotaxis = assay: Fibroblast chemotaxis to GFs in the presence or absence of FN domains; assay type: cell-based; details: in solution
Description: To determine whether FN functional domains modulated TGF-β1, bFGF or PDGF-BB activity in solution, fibroblast chemotaxis was performed in response to the GFs in the presence or absence of FN domains.

human dermal fibroblasts = assay: Type 1 collagen production by fibroblasts on FN domain coated plates preincubated with TGF-β1; assay type: cell-based; details: for type 1 collagen production in response to preincubated TGF-β1: plates coated with FNIII8-11 alone or with the named domain
From the text: Therefore, we investigated whether it retained its activity while bound to recombinant FN functional domains. FNIII8-11 was adsorbed on plastic tissue culture dishes at a surface density to maximally affect the attachment and spreading of human dermal fibroblasts with or without the presence of adsorbed FNIII1-2. […] The maximum collagen secretion was approximately 25% of the amount observed when TGF-β1 remained in the medium at the concentrations indicated. […] The numbers of attached and spread cells were essentially identical when fibroblasts were cultures on plates coated with both FNIII8-11 and FNIII1-2 or FNIII8-11 alone. Similar data was obtained when fibroblasts were cultured on plates that had been coated with FNIII8-11 and FNIII12-V15 and then preincubated with TGF-β1.

ERK = ERK response to PDGF-BB in presence and absence of FNIII1-2; assay type: cell-based; details: preliminary results
Description: In preliminary results investigating signal transduction pathway activation of growth factors in the presence of FN GF-binding peptides, the response of ERK to PDGF-BB in the presence and absence of FNIII1-2 was studied. Without FNIII1-2, the ERK response to PDGF-BB was maximum at 20 minutes and gradually diminished over four hrs. In the presence of FNIII 1-2, the ERK response to PDGF-BB, was about 25% greater and sustained for at least four hours.

[5] = molecular target: PDGF-BB binding to FNIII1, FNIII12-14 and IIICS (Homo sapiens, UniProt P01127); assay: Inhibition of PDGF-BB binding to FN domains by FNIII1 peptides
From the text: Next, we determined if PDGF-BB-binding peptides from FNIII1 could inhibit PDGF-BB binding to FNIII1, FNIII12-14 and IIICS. For initial experiments we selected peptide 1 and peptide 2. For control, we used scrambled peptide 1.

TGF-β1 [6] = molecular target: T2, TGF-β1; assay: Equilibrium binding of TGF-β1 to FN, FN domains and peptides; details: equilibrium binding
Description: These peptides represent domains that follow the sequence pattern [QN]-X(1,2)-[ST]-X(0,1)-[IG]-[QS]-[KRQ]-[YTM]-[IG]-X(4,5)-X(0,1)-[KR]-X(1,2)-X(1,2)-[RT]-X(1,2)-[KQTS]-X(2)-T and that bind TGF-β1 with a certain affinity. […] We know of no other peptides in the human genome database that follow this pattern.
as §4

[7] = molecular target: TGF-β1 binding to any recombinant FN domain (Homo sapiens, UniProt P01137); assay: Inhibition of TGF-β1 binding to recombinant FN domains
[8] = molecular target: bFGF binding to any recombinant FN domain (Homo sapiens, UniProt P09038); assay: Inhibition of bFGF binding to recombinant FN domains
TGF-α = TGF-α (Homo sapiens, UniProt P01135); assay: Binding of TGF-α to FN, FN domains and peptides
Description: as §3, §4

CCL-64 mink lung cells = assay: Inhibition of [3H]-thymidine incorporation by CCL-64 cells by FN-adhered TGF-β; assay type: cell-based
FGF-1 = FGF-1 (Homo sapiens, UniProt P05230); assay: Binding of FGF-1 to FN, FN domains and peptides
Description: as §3, §4

bFGF = bFGF (Homo sapiens, UniProt P09038); assay: Equilibrium binding of bFGF (FGF-2) to FN, FN domains and peptides; details: equilibrium binding, intact FN; read-out: KD, bFGF (FGF-2) binding
Description: as §3, §4

EGF = EGF (Homo sapiens, UniProt P01133); assay: Binding of EGF to FN, FN domains and peptides
From the text: as §1, §3, §4

T2 sequence (P01137 279-390 limits assumed, species assumed): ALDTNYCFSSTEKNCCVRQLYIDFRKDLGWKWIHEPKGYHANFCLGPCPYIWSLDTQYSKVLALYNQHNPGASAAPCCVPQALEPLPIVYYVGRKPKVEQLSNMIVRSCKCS
T1 sequence (P01127 82-190 limits assumed): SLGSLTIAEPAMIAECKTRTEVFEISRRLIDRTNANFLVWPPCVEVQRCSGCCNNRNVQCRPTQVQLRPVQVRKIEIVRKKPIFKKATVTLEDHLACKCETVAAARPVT
Chain of FGF-2 (P09038 143-288): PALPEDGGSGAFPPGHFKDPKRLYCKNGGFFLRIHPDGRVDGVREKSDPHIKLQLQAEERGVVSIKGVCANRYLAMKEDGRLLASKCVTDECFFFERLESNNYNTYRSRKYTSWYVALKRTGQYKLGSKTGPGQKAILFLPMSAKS
Chain of PDGF-BB binding to FNIII1, FNIII12-14 and IIICS (P01127 82-190 limits assumed): as the sequence (P01127 82-190 limits assumed) above
Chain of FGF-1 (P05230 whole entry, species assumed, the tested form may be a part): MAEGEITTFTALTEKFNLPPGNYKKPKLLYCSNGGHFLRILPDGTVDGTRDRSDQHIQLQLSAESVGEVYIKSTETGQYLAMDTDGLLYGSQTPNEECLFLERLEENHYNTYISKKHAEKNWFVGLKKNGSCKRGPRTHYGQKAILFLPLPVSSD
Chain of bFGF binding to any recombinant FN domain (P09038 134-288 limits assumed): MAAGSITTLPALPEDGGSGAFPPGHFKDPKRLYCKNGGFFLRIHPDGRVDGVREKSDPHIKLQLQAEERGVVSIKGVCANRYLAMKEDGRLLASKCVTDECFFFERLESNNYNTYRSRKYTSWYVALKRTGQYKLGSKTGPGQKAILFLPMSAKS
Chain of EGF (P01133 971-1023 limits assumed, species assumed): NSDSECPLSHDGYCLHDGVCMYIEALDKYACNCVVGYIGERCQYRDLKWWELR
Chain of TGF-β1 binding to any recombinant FN domain (P01137 279-390 limits assumed): as the sequence (P01137 279-390 limits assumed, species assumed) above
Chain of TGF-α (P01135 40-89 limits assumed, species assumed): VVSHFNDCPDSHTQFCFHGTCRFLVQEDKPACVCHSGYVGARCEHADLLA
Chain of bFGF (P09038 143-288): as the sequence (P09038 143-288) above

Substance: FN70: 70 kDa amino terminus of FN, includes fibrin and gelatin binding domains
- FGF-2 binding (in words) (FGF-2): None of the GFs detectably bound
- VEGF binding (in words) (VEGF): None of the GFs detectably bound
- PDGF-BB binding (in words) (PDGF-BB [1]): did not
- TGF-β1 binding (in words) (TGF-β1 [2]): None of the GFs detectably bound
- PDGF-BB binding (in words) (PDGF-BB [3]): None of the GFs detectably bound
- binding of any GF (in words) (GFs): In no case did any GF bind

Substance: FN630-667: one half of the 76 aa FNIII1 peptide FN630-704
- PDGF-BB binding (in words) (PDGF-BB [1]): demonstrated PDGF-BB binding

Substance: FN668-704: one half of the 76 aa FNIII1 peptide FN630-704
- PDGF-BB binding (in words) (PDGF-BB [1]): demonstrated PDGF-BB binding

Substance: FNIII1-2: recombinant FN type III repeats 1-2
- FGF-2 binding (in words) (FGF-2): all four GFs bound
- VEGF binding (in words) (VEGF): all four GFs bound
- Kd (PDGF-BB [1]): 37 nM
- TGF-β1 binding (in words) (TGF-β1 [2]): all four GFs bound
- FN-null cell survival / proliferation with PDGF-BB [4]: enhance survival
- PDGF-BB binding (in words) (PDGF-BB [3]): all four GFs bound
- Kd (PDGF-BB [3]; kinetic binding): 9.1 nM
- chemotactic activity when assayed alone (fibroblast chemotaxis): no chemotactic activity
- enhancement of chemotactic activity of TGF-β1, bFGF and PDGF-BB (fibroblast chemotaxis): enhanced the chemotactic activity
- type 1 collagen production in response to preincubated TGF-β1 (human dermal fibroblasts): produced type 1 collagen in a dose response fashion
- maximum collagen secretion, % of amount when TGF-β1 remained in the medium (human dermal fibroblasts; plates coated with FNIII8-11 and FNIII1-2, preincubated with TGF-β1): approximately 25%
- ERK response to PDGF-BB, increase versus without FNIII1-2 (ERK): about 25%
- duration of sustained ERK response to PDGF-BB (ERK): at least four

Substance: FNIII1-11: recombinant FN type III repeats 1-11
- FGF-2 binding (in words) (FGF-2): did not
- VEGF binding (in words) (VEGF): did not
- TGF-β1 binding (in words) (TGF-β1 [2]): bound
- FN-null cell survival in the absence of PDGF-BB [4]: survived
- FN-null cell survival / proliferation with PDGF-BB [4]: robust proliferation
- FN-null cell survival with PDGF [4]: The best survival response
- PDGF-BB binding (in words) (PDGF-BB [3]): bound

Substance: FNIII1: recombinant first FN type III repeat
- FGF-2 binding (in words) (FGF-2): all four GFs bound
- VEGF binding (in words) (VEGF): all four GFs bound
- TGF-β1 binding (in words) (TGF-β1 [2]): all four GFs bound
- FN-null cell survival with PDGF [4]: increased survival
- PDGF-BB binding (in words) (PDGF-BB [3]): all four GFs bound

Substance: FNIII2: recombinant second FN type III repeat
- FGF-2 binding (in words) (FGF-2): all four GFs bound
- VEGF binding (in words) (VEGF): all four GFs bound
- TGF-β1 binding (in words) (TGF-β1 [2]): all four GFs bound
- PDGF-BB binding (in words) (PDGF-BB [3]): all four GFs bound

Substance: FNIII8-11: central cell-binding domain of FN containing RGD
- FGF-2 binding (in words) (FGF-2): None of the GFs detectably bound
- VEGF binding (in words) (VEGF): None of the GFs detectably bound
- PDGF-BB binding (in words) (PDGF-BB [1]): did not
- TGF-β1 binding (in words) (TGF-β1 [2]): None of the GFs detectably bound
- FN-null cell survival with PDGF [4]: failed to survive
- support of FN-null fibroblast survival in the presence of PDGF-BB ([4]; substrate coating, FNIII8-11 alone or + named domain): did not support cell survival
- PDGF-BB binding (in words) (PDGF-BB [3]): None of the GFs detectably bound
- type 1 collagen production in response to preincubated TGF-β1 (human dermal fibroblasts): No increase in collagen synthesis
- binding of any GF (in words) (GFs): In no case did any GF bind

Substance: FNIII8-V15: FN type III repeats 8 to V15
- FN-null cell survival / proliferation with PDGF-BB [4]: robust proliferation

Substance: QLISIQQYGHQEVTRFDFTTTSTST [peptide 2]
- inhibition of PDGF-BB binding to FNIII1, FNIII12-14 and IIICS [5]: neither peptide 2, nor the scramble varient of peptide 1 (FN634-658s), demonstrated inhibition

Substance: QPSHISKY (Synthetically generated peptide) [FN634-641, 8 aa peptide from FNIII1]
- TGF-β1 binding (in words) (TGF-β1 [6]): minimal binding activity

Substance: QPSHISKYILRWRPKNSVGRWKEAT [peptide 1]
- inhibition of TGF-β1 binding to any recombinant FN domain [7]: completely inhibited
- Kd (PDGF-BB [1]): 250 nM
- inhibition of PDGF-BB binding to FNIII1, FNIII12-14 and IIICS [5]: marked inhibition
- inhibition of bFGF binding to any recombinant FN domain [8]: completely inhibited

Substance: anastellin: 76-aa peptide within FNIII1; anti-angiogenic, promotes FN polymerization
- FGF-2 binding (in words) (FGF-2): bound
- VEGF binding (in words) (VEGF): all but VEGF bound
- PDGF-BB binding (in words) (PDGF-BB [1]): demonstrated PDGF-BB binding
- TGF-β1 binding (in words) (TGF-β1 [2]): bound
- PDGF-BB binding (in words) (PDGF-BB [3]): bound

Substance: fibronectin [intact FN]
- TGF-α binding (in words) (TGF-α): did not
- functional activity of TGF-β adhered to FN (CCL-64 mink lung cells): retained full functional activity
- Kd (PDGF-BB [1]): 49 nM
- FGF-1 binding (in words) (FGF-1): did not
- FN-null cell survival / proliferation with PDGF-BB [4]: robust proliferation
- Kd (TGF-β1 [6]): 53 nM
- Kd (bFGF): 44 nM
- EGF binding (in words) (EGF): did not
